# Assay results published in US20040167074A1, “Therapeutic applications of mFLINT polypeptides” (priority 1998, published 2004).
# Several values for one entry are separate records, joined by “and”; a condition that tells them apart may be missing. Equal entries are not always repeated.
# Tests used:
# [1] = test system: Jurkat cells; test: anti-CD3 induced Jurkat apoptosis (Annexin V/PI, FACS); assay type: cell-based; details: Example 12; Jurkat + antiCD3 + 10 μM DEVD-cmk
# Experimental: Non-tissue treated 24 well plates (Decton Dickinson, Mansfield, Mass.) were coated with 0.5 ml of 1 ug/ml anti-CD3 (Farmingen) in PBS for 90 min at 37° C. The plate was washed once with PBS.
# Cells were incubated overnight at 37° C. incubator and cells were then stained by Annexin V and PI staining. Apotosis was analyzed by flow cytometer (FACS). Cell apoptosis was indicated by positive staining with Annexin V.
# [2] = molecular target: FasL expressed by anti-CD3-activated Jurkat cells
# [3] = molecular target: soluble Fas L (recombinant FasL)
# [4] = molecular target: FasL expressed by anti-CD3-activated Jurkat cells; remark: listed apart in the source
# [5] = test system: Jurkat cells; test: Recombinant FasL induced Jurkat cell apoptosis (Annexin V/PI, FACS); assay type: cell-based; details: Jurkat + inducer alone 200 ng/ml, overnight
# Experimental: One milliliter of 1×10^6 cell/ml was added into each well of 24 well tissue culture plate and treated with following reagents: soluble Fas L (200 ng), Fas L plus 1 ug mFLINT, Fas L plus 1 ug OPG2-Fc, Trail (200 ng), Trail plus 1 ug mFLINT. Cells were incubated overnight at 37° C. and then stained with Annexin V and PI.
# [6] = test system: LIGHT; test: LIGHT cell surface binding assay by flow cytometry
# Experimental: To confirm the dot blot binding between LIGHT and mFLINT, 293 cells were transiently transfected with LIGHT expression construct overnight. On the next day, cells were detached and incubated with mFLINT-Flag on ice. […] As a control we used vector transfected cells. To make sure that the binding was specific, a competition assay with 10 fold access of untagged mFLINT was performed.
# More particularly, 6 well dishes of cells were transfected as above. Both vector and m-LIGHT expressing cells were provided. Cells were detached from the plates by vigorous pipetting with a P100 Pipettor. Then, in PBS/BSA, 0.1%, cells were exposed to one of the following combinations, set forth in a-d.
# a. GST/flag, mFLINT/flag, or HVEM at 20 nM;
# b. FLINT/flag at 20 nM+GST/flag or mFLINT or HVEM at 200 nM;
# c. FLINT/flag at 20 nM+HVEM+anti-human FAS ligand at 200 n-M;
# d. anti-human FAS ligand-biotin at 1 μg/ml
# Cells were incubated on ice for 30 minutes and washed with PBS/BSA, 0.1%. Cells then were exposed either to anti-human IgG-biotin, 1 μg/ml (for detection of HVEM), or to M2-biotin, 2 μg/ml (for detection of flag conjugates). Cells were incubated on ice for 30 minutes and washed with PBS/BSA, 0.1%. Thereafter, cells were exposed to streptavidin Alexa 488 (SIGMA) at a 1:1000 dilution. Again, cells were incubated on ice for 30 minutes and washed with PBS/BSA, 0.1 1%. Cells were analyzed using a FACSORT flow cytometer (Decton Dickinson) to determine binding.
# [7] = molecular target: T1, FasL (Homo sapiens, UniProt P48023); test: BiaCore real-time biomolecular interaction analysis (surface plasmon resonance); assay type: binding; details: immobilized FasL (monomer bound), analyte in solution
# T1 construct: purchased Kamiya Biomedical Company
# T1 sequence (P48023 130-281 limits assumed): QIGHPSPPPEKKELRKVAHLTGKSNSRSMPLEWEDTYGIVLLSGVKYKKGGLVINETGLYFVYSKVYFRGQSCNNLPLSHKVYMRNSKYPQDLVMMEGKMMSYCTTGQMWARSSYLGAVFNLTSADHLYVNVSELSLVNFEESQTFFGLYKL
# Text: FLINT-Fas L binding may be confirmed and specifics of binding determined (e.g., kinetics, specificity, affinity, cooperativity, relative binding pattern, concentration) using real-time biomolecular interaction analysis. This technology confers the ability to study biomolecular interactions in real time, without labeling any of the interactants. In particular, it takes advantage of the optical phenomenon surface plasmon resonance, and detection depends on changes in the mass concentration of macromolecules at the biospecific interface. Interactions are followed in real time, so that kinetic information is readily derived. In many cases, investigations can be performed without prior purification of components.
# Measurements are accomplished using a BiaCore 2000 instrument. The instrument, accompanying chips, immobilization and maintenance kits and buffers are obtained from Biacore AB, Rapsgatan 7, S-754 50 Uppsala, Sweden. FasL is obtained from Kamiya Biomedical Company, 910 Industry Drive, Seattle, Wash. 98188, Guanidine Isothiocyanate Solution from GibcoBRL, and mFLINT is prepared as in Examples 8 and 9.
# Experiments using immobilized FasL loaded with a solution containing mFLINT. […] This is explained by the fact that FasL is a trimer, yet here FasL monomer was bound. Further experiments utilized bound FLINT with FasL in solution, allowing for trimer formation. […] This observations indicate that FLINT should effectively compete with Fas for FasL binding, which likely explains the therapeutic benefit observed in experiments detailed below.
# [8] = molecular target: T2, hFasLigand (Flag-tagged) (Homo sapiens, UniProt P48023); test: ELISA: FasLigand binding to adsorbed FLINT and Fas; details: 100 ng receptor adsorbed
# T2 sequence (P48023 103-281 limits assumed): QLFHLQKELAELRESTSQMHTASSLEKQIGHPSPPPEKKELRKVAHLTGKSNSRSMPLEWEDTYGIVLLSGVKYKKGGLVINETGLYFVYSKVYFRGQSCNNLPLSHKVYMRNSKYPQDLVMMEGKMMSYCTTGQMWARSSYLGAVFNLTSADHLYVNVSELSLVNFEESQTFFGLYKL
# Experimental: FLINT and Fas (100 ng of each) were adsorbed on to an ELISA plate. hFasLigand (Flag-tagged) was added at different concentrations to a maximum concentration of 300 ng down to 0.1 ng on TBST plus a 0.1% solution containing 1 microgram/ml of M2 Abs. After washing of the plate, anti-mouse-Abs-HRP (1:3000 dilution, Bio-Rad) was added to the wells. After washings, visualization enzymatic reaction using ABTS as a substrate was performed.
# [9] = test system: Mouse T cell hybridoma cells (LTT cells); test: Murine FasL-mediated apoptosis of LTT cells (Annexin V assay); assay type: cell-based; details: test agent 1 μg/ml
# Experimental: (§1) LTT,2,14,11 cells (LTT cells), see Glasebrook, Eur.J.Immunol. 17: 1561-65 (1987), were used in this Annexin V assay. On the first day, a 96 well plate was coated with anti-CD3 (2C11) at a serial dilutions. On the second day, 100,000 LTT cells were added, in 50 μl of medium per well, along with 50 μl of medium to the control wells and 50 μl of medium containing:
# Group 1. solubleFas (sFas)(FasFc, mouse), with a final concentration of 1 μg/ml
# Group 2. mFLINT (human), with a final concentration of 1 ug/ml
# Group 3. anti-FasL (mouse), with a final concentration of 1 ug/ml.
# These then were incubated overnight, at 37° C., in 5% CO2;
# On the following day (Day 3), the cells were collected from each well, washed and labeled with Annexin V and PI, following Flow cytometry analysis.
# [10] = test system: Mouse T cell hybridoma cells (LTT cells); test: Murine FasL-mediated apoptosis of LTT cells (MTS cytotoxicity assay); assay type: cell-based; details: test agent 1 μg/ml
# Experimental: as §1
# The same steps as in Example 16 were followed on Day 1 and Day 2. On Day 3 20 ul of MTS solution (Promega) was added to the cells which were then incubated at 37° C. for 2 hours. Using a plate reader, the absorbances at 490 nm wavelength were collected.
molecule,measurement,setting,value
"DEVD-cmk [DEVDcmk, reference compound]",Cell apoptosis (positive staining with Annexin V),[1],30.80
OPG2-Fc (Fc fusion),apoptosis of Jurkat cells,[2],26.2
same,"apoptosis of Jurkat cells, Annexin V and PI (FACS)",[3],70.6
same,"apoptosis of Jurkat cells, positive staining with Annexin V (FACS)",[4],45.8
"TRAIL: TNF ligand TRAIL (RnD Systems) (protein, UniProt P50591 1-281, looked up) Tumor necrosis factor ligand …: MAMMEVQGGPSLGQTCVLIVIFTVLLQSLCVAVTYVYFTNELKQMQDKYSKSGIACFLKEDDSYWDPNDEESMNSPCWQVKWQLRQLVRKMILRTSEETISTVQEKQQNISPLVRERGPQRVAAHITGTRGRSNTLSSPNSKNEKALGRKINSWESSRSGHSFLSNLHLRNGELVIHEKGFYYIYSQTYFRFQEEIKENTKNDKQMVQYIYKYTSYPDPILLMKSARNSCWSKDAEYGLYSIYQGGIFELKENDRIFVSVTNEHLIDMDHEASFFGAFLVG","Cell apoptosis (Annexin V and PI, FACS)",[5],17.47 and 17.43
mFLINT-Flag: FLINT with the Flag sequence attached at the C-terminal end: [FLINT]-DYKDDDDK (protein) VAETPTYPWRDAETGERLVCAQCPPGTFVQRPCRRDSPTTCGPCPPRHYTQFWNYLERCRYCNVLCGEREEEARACHATHNRACRCRTGFFAHAGFCLEHASCPPGAGVIAPGTPSQNTQCQPCPPGTFSASSSSSEQCQPHRNCTALGLALNVPGSSSHDTLCTSCTGFPLSTRVPGAEECERAVIDFVAFQDISIKRLQRLLQALEAPEGWGPTPRAGRAALQLKLRRRLTELLGAQDGALLVRLLQALRVARMPGLERSVRERFLPVHDYKDDDDK,cell surface binding (flow cytometry peak shift),[6]; LIGHT-transfected 293 cells,peaks shifted only when LIGHT expressing cells were stained with mFLINT-Flag
same,cell surface binding (flow cytometry peak shift),[6]; vector transfected control cells,no shift in the control cells
"Fas: Fas receptor protein adsorbed on ELISA plate or compared in BiaCore (protein, UniProt P25446 22-169, looked up, extracellular domain, Fas receptor protein adsorbed on ELISA plate or compared in BiaCore) extracellular domain: QGTNSISESLKLRRRVRETDKNCSEGLYQGGPFCCQPCQPGKKKVEDCKMNGGTPTCAPCTEGKEYMDKNHYADKCRRCTLCDEEHGLEVETNCTLTQNTKCKCKPDFYCDSPGCEHCVRCASCEHGTLEPCTATSNTNCRKQSPRNR",Kd,[7],162 nM
same,"OD, 405 nM",[8]; FasL 0.1 ng,0
same,"OD, 405 nM",[8]; FasL 0.5 ng,0
same,"OD, 405 nM",[8]; FasL 1.0 ng,0
same,"OD, 405 nM",[8]; FasL 5.0 ng,.01
same,"OD, 405 nM",[8]; FasL 10 ng,.03
same,"OD, 405 nM",[8]; FasL 50 ng,.045
same,"OD, 405 nM",[8]; FasL 100 ng,.18
"SFas: solubleFas (sFas)(FasFc, mouse) (protein) QGTNSISESLKLRRRVRETDKNCSEGLYQGGPFCCQPCQPGKKKVEDCKMNGGTPTCAPCTEGKEYMDKNHYADKCRRCTLCDEEHGLEVETNCTLTQNTKCKCKPDFYCDSPGCEHCVRCASCEHGTLEPCTATSNTNCRKQSPRNR",% Annexin V Positive,[9]; Anti CD3 0,23.14%
same,% Annexin V Positive,[9]; Anti CD3 0.11,41.08%
same,% Annexin V Positive,[9]; Anti CD3 0.33,47.28%
same,% Annexin V Positive,[9]; Anti CD3 1,56.66%
same,MTS absorbance at 490 nm,[10]; Anti CD3 conc. 0 μg/ml,1.774
same,MTS absorbance at 490 nm,[10]; Anti CD3 conc. 0.0014 μg/ml,1.968
same,MTS absorbance at 490 nm,[10]; Anti CD3 conc. 0.004 μg/ml,1.929
same,MTS absorbance at 490 nm,[10]; Anti CD3 conc. 0.012 μg/ml,1.779
same,MTS absorbance at 490 nm,[10]; Anti CD3 conc. 0.037 μg/ml,1.777
same,MTS absorbance at 490 nm,[10]; Anti CD3 conc. 0.11 μg/ml,1.638
same,MTS absorbance at 490 nm,[10]; Anti CD3 conc. 0.33 μg/ml,1.624
same,MTS absorbance at 490 nm,[10]; Anti CD3 conc. 1 μg/ml,1.459
